Measurements taken from patent publication US20180265890.

Test system: T1, PiggyBac transposase with c-myc NLS
T1 sequence: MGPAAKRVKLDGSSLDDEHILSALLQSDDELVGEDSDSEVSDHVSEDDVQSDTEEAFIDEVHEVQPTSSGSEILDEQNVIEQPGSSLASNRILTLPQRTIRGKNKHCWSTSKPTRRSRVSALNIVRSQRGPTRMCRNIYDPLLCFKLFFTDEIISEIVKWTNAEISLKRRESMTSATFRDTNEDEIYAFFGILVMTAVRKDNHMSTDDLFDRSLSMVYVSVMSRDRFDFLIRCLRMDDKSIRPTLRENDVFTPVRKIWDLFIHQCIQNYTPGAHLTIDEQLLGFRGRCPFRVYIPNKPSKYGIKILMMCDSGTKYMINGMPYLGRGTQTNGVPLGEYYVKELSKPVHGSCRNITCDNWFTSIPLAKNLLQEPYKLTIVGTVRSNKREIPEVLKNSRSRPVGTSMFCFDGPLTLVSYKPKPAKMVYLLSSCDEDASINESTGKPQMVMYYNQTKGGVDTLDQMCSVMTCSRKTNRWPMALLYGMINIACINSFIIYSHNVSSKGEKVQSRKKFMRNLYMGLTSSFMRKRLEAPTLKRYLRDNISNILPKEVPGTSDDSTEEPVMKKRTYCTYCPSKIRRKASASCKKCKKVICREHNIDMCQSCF
Assay: cell_activity
Settings: pNB328-EGFP in Jurkat cells after 3 passages; both terminal repeats present together; K562 40.54%, primary T 56.9%, mouse ES 73.12%

TTAACCCTAGAAAGATAATCATATTGTGACGTACGTTAAAGATAATCATGCGTAAAATTGACGCATG (double strand) [PiggyBac 5'-terminal repeat]
activity (% EGFP positive cells): 36.4

GCATGCGTCAATTTTACGCAGACTATCTTTCTAGGGTTAA (double strand) [PiggyBac 3'-terminal repeat]
activity (% EGFP positive cells): 36.4
